Assay results reported in US20220135680A1 (ABZYME THERAPEUTICS, published 2022).
Numbering of substitutions follows the chain as printed.

B1: Abz497 ScFV (scFv)
scFv: QIQLVQSGAEVAKPGASVKVSCKASGYTFTRYTMHWVRQRPGQGLEWIGYINPSRGYTNYNQKFKDRATLTTDKSTSTAYMELSSLTSEDTAVYYCARYYDDHYCLDYWGQGTTVTVSSVEGGSGGSGGSGGSGGVDDIQLTQSPSSLSASVGDRVTITCRASSSVHYMNWYQQKSGTAPKRWIYDTSKVASGVPYRFSGSGSGTSYTLTISSLQPEDAATYYCQQWSSNPLTFGGGTKVEIKR
notes: also called pH-dependent ScFV antibody variant; not shown: FLAG tag at the C terminus
B2: Abz494 ScFV (scFv)
scFv: B1 scFv with S144P
notes: as for B1

Assays:
[1] = biological target: T1, human CD3 receptor on human cells (human, UniProt P07766 23-207; P09693 23-182; P04234 22-171); assay: flow cytometry on Jurkat cells (FIG. 5)
T1 construct: whole, on cells; also called human CD3 on cell surface; CD3 on Jurkat cells, clone E6-1
From the text: FIG. 5 presents the cytoflow analysis of Jurkat cells stained with various anti-CD3 antibodies at various pHs.

[2] = biological target: T1, human CD3 receptor on human cells; assay: flow cytometry on human cells (Example 5)

Row | Binder | binding result [1] | binding result [2]
1 | B1 | binds | –
2 | B2 | – | binds
